The target of one assay is SpyCatcher-AP205. The experiment in a line: reducing SDS-PAGE of the covalent conjugate.
Assay [1] concerns the target Pfs25-IMX313-CTag (Plasmodium falciparum) (UniProt P13829). The experiment in a line: SEC. A general note: Size exclusion chromatography separates by hydrodynamic size, large species first.
Assay [2] shares this target. Description: non-reducing SDS-PAGE; Coomassie-stained gel, non-reduced against reduced sample.

As usually defined, the stoichiometry N is the number of molecules, sites or subunits per partner or assembly.

“Pfs25-SpyTag-CTag (from UniProt P13829 22-193)” displayed a percent coupling (coat protein molecules linked to Pfs25-SpyTag) with SpyCatcher-AP205 of 100%. Consider “Pfs25-IMX313-CTag (from UniProt P13829 22-193)”, for which the stoichiometry N in assay [1] and in assay [2] was 7 throughout.

Source of the values: PMC5476561.
